Laboratory results as given in patent US20160138036A1 (SNU R AND DB FOUNDATION, published 2016).

B1: S-IK truncated SOC1 form (peptide)
chain: KKAFELSVLCDAEVSLIIFSPKGKLYEFASSNMQDTIDRYLRHTKDRVSTKPVSEENMQHLKYEAANMMKKIEQLEASKRKLLGEGIGTCSIEELQQIEQQLEKSVKCIRARKTQVFKEQIEQLKQKEKALAAENEKLSEK
modifications: 35S-Met label in the pull-down assay (in vitro translated)
notes: It was fused to GAL4 domain or EYFP half in yeast and BiFC assays; also called SOC1 a-siPEP
B2: S-K truncated SOC1 form (peptide)
chain: VSEENMQHLKYEAANMMKKIEQLEASKRKLLGEGIGTCSIEELQQIEQQLEKSVKCIRARKTQVFKEQIEQLKQKEKALAAENEKLSEK
modifications: 35S-Met label in the pull-down assay (in vitro translated)
notes: It was fused to GAL4 domain or EYFP half in yeast and BiFC assays; also called S-K form; SOC1 a-siPEP
B3: BdS-IK truncated BdSOC1 form (peptide)
chain: KAHELSVLCDVEVALIVFSPSGRLYEFASASMQKTLERYKASTKDKTSSPTAQQDIEKIKADAEGLSQKLEALEAYRRKFLGEKLEDDCSFEELNSLEVKMEKSLRSIRRMKTQVFEDQLAKLRQKEMTLRKENEDLRGK
modifications: 35S-Met label in the pull-down assay (in vitro translated)
notes: An artificial start codon was added; also called BdS-MK2 (primer name)
B4: BdS-K truncated BdSOC1 form (peptide)
chain: TAQQDIEKIKADAEGLSQKLEALEAYRRKFLGEKLEDDCSFEELNSLEVKMEKSLRSIRRMKTQVFEDQLAKLRQKEMTLRKENEDLRGK
modifications: 35S-Met label in the pull-down assay (in vitro translated)
notes: An artificial start codon was added

Legend:
[1] = molecular target: T1, SOC1 (SUPPRESSOR OF OVEREXPRESSOR OF CONSTANS 1) transcription factor (Arabidopsis thaliana, UniProt O64645 1-214, 35S-Met label in the pull-down assay (in vitro translated)); test: BiFC (split EYFP fusions) in Arabidopsis protoplasts
T1 construct: Full-size MADS box transcription factor; In yeast two-hybrid it was fused to GAL4 AD or BD (pGADT7/pGBKT7); In BiFC it was fused to a half of EYFP; In the pull-down it was in vitro translated from pGADT7 and 35S-labeled; also called Arabidopsis SOC1; At2g45660
T1 sequence (O64645 whole entry, the tested form may be a part): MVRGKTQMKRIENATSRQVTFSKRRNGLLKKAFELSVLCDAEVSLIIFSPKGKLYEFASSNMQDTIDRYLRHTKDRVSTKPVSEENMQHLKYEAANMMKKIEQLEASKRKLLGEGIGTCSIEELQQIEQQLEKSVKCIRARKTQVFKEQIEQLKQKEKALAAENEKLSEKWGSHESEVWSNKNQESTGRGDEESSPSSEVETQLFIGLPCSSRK
Experimental: (§1) BiFC assays were carried out as described previously (Hong et al., J. Biol. Chem. 286, 1659-1668, 2011). A full-size SOC1 gene was fused in-frame to the 5′ end of a gene sequence encoding the C-terminal half of EYFP in the pSATN-cEYFP-C1 vector (E3082). Truncated SOC1 gene sequences were fused in-frame to the 5′ end of a gene sequence encoding the N-terminal half of EYFP in the pSATN-nEYFP-C1 vector (E3081). The expression constructs were cotransformed into Arabidopsis protoplasts. Expression of the fusion constructs was monitored by fluorescence microscopy using a Zeiss LSM510 confocal microscope (Carl Zeiss MicroImaging GmbH, Jena, Germany). The BdSOC1 gene constructs were prepared similar to the Arabidopsis SOC1 gene constructs and transiently expressed in Brachypodium protoplasts.

[2] = molecular target: T2, BdSOC1 (Brachypodium distachyon SUPPRESSOR OF OVEREXPRESSOR OF CONSTANS 1) transcription factor (Brachypodium distachyon, 35S-Met label in the pull-down assay (in vitro translated)); test: BiFC (split YFP fusions) in Brachypodium protoplasts
T2 construct: Fused to an EYFP half in BiFC; In vitro translated and 35S-labeled in the pull-down; also called Bradi1g77020; Brachypodium SOC1
T2 sequence (chain, as listed by the source limits assumed): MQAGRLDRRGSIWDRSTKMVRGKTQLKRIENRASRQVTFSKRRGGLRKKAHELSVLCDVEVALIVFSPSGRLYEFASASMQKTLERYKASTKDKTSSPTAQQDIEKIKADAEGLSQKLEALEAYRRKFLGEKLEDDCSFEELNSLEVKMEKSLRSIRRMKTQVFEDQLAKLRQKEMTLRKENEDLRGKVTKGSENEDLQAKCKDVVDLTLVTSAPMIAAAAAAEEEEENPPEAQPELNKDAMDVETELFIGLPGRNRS
Experimental: (a) in vitro pull-down assays. The BdSOC1 protein was prepared as recombinant BdSOC1-MBP fusion in E. coli cells. The ³⁵S-labeled BdSOC1 polypeptides were prepared by in vitro translation. Part of Coomassie-stained gel is shown (bottom panel). (b) BiFC assays. Partial YFP fusion constructs were transiently expressed in Brachypodium protoplasts. Scale bars=10 μm.
as §1

Binder | binding result [1] | binding result [2]
B1 | binds | –
B2 | binds | –
B3 | – | binds
B4 | – | binds
